Laboratory results as given in patent US12145987B2, “Method for depleting cytotoxic T cells using an anti-LAG-3 antibody composition” (Daiichi Sankyo Company, Limited, priority 2017, dated 2024).

T1: human PHA blasts expressing LAG-3 (Homo sapiens, UniProt P18627)
T1 construct: To human PBMCs stimulated with 2 μg/mL of PHA (manufactured by Sigma-Aldrich) for three days; endogenous in cells; host or cells: human PBMCs stimulated with PHA for three days (PHA blasts)
T1 sequence (P18627 23-525): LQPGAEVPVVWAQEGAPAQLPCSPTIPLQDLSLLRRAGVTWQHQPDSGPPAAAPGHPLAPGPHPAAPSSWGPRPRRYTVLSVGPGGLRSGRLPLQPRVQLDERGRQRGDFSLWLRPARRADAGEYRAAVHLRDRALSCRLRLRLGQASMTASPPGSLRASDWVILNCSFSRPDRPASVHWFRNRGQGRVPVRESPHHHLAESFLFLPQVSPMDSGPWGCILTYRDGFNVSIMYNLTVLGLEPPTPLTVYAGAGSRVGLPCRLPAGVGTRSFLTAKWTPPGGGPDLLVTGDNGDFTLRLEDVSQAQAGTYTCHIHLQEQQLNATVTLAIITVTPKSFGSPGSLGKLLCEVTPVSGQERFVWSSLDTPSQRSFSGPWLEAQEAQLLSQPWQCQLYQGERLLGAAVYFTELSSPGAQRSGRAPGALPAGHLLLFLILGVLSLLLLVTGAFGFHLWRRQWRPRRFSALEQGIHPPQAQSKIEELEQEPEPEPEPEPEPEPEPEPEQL

T2: immunoglobulin-like domains of human LAG-3 (Homo sapiens, UniProt P18627)
T2 construct: expressed in transfected cells; host or cells: HEK293T cells, pcDNA3.1 plasmids, transient transfection
T2 sequence (P18627 263-525): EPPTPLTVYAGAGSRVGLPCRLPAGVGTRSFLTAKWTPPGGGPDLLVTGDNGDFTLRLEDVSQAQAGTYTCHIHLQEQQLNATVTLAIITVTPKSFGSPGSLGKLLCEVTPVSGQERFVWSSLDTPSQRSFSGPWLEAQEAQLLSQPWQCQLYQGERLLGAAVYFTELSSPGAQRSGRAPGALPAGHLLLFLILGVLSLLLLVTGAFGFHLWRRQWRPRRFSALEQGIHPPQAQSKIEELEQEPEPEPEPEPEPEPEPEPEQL

T3: immunoglobulin-like domains of human LAG-3 (Homo sapiens, UniProt P18627)
T3 construct: expressed in transfected cells; host or cells: HEK293T cells, pcDNA3.1 plasmids, transient transfection
T3 sequence (P18627 353-525): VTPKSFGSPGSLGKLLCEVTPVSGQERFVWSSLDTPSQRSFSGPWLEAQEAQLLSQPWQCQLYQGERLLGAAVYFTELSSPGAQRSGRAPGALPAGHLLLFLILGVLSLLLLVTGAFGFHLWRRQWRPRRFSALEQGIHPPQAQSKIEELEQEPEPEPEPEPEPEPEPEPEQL


Tests used:
[1] = target: T1, human PHA blasts expressing LAG-3; assay: Binding activity to activated human T cells (PHA blasts) by flow cytometry; conditions: mean fluorescence intensity
Procedure: It was further confirmed by flow cytometry that the antibody produced by the hybridomas determined to be positive by the Cell-ELISA in Example 1)-3 binds to PHA (phytohemagglutinin) activated human T cells (PHA blasts), a more physiologically relevant cell type expressing LAG-3. To human PBMCs stimulated with 2 μg/mL of PHA (manufactured by Sigma-Aldrich) for three days, was added a hybridoma culture supernatant for suspension, followed by reaction at 4° C. for 30 minutes. After washing with a FACS buffer (PBS, 0.1% BSA, and 0.1% sodium azide), a secondary antibody such as an Anti-Rat IgG PE conjugate (manufactured by Jackson ImmunoResearch Laboratories, Inc.) diluted 200-fold with a FACS buffer comprising a LIVE/DEAD Fixable Dead Cell Stain Kit-near-IR fluorescent reactive dye (manufactured by Invitrogen Corp.) was added thereto for suspension, followed by standing at 4° C. for 30 minutes. After washing with a FACS buffer, the cells were resuspended in PBS containing 1 to 2% paraformaldehyde, followed by detection using a flow cytometer (CantoII: manufactured by Becton, Dickinson and Company or FC500: manufactured by Beckman Coulter Inc.). The data was analyzed using FlowJo (manufactured by Tree Star Inc). After removal of the LIVE/DEAD Fixable Dead Cell Stain Kit-near-IR fluorescent reactive dye-positive dead cells by gating, a histogram of the fluorescence intensity of the living cells was plotted.
The binding activity of the rat anti-human LAG-3 antibodies rLA204, rLA212, rLA225, rLA869, and rLA1264 purified by the method described in Example 1)-7 to activated human T cells was investigated.

[2] = target: T2, immunoglobulin-like domains of human LAG-3; assay: Identification of epitope: flow cytometry on HEK293T cells expressing human LAG-3 domain deletion constructs; assay type: binding; conditions: FLAG-tagged 263-525, HEK293T cells, 10 μg/mL
Description: (§1) Based on the fact that the rat anti-LAG-3 antibodies rLA204, rLA212, rLA225, rLA869, and rLA1264 are antibodies developed using a mutant deficient in the 1st and 2nd domains (which will be hereinafter referred to respectively as domains 1 and 2) from the N terminus out of the four immunoglobulin-like domains present in the extracellular region of LAG-3 as an immunogen, in order to reveal which of the remaining 3rd and 4th domains (which will be hereinafter referred to respectively as domains 3 and 4) from the N terminus these antibodies bind to, binding of the obtained rat anti-LAG-3 antibodies to cells expressing domains 3 and 4, or only domain 4, was investigated by flow cytometry.
(§2) Each expression plasmid (cloned into pcDNA3.1) of either domain 3 and onwards (263-525) or domain 4 and onwards (353-525) of human LAG-3 with a FLAG tag sequence (DYKDDDDK) (SEQ ID NO:87) added to the N terminus was introduced into HEK293T cells using Lipofectamine 2000 (manufactured by Life Technologies Corp.), and the cells were cultured for 1 day and then recovered, to investigate the binding activity of the antibodies by flow cytometry according to the method described in Example 1)-4.
(§3) In addition to the two types of constructs in FIG. 5A, expression plasmids were used of domain 2 and onwards (amino acid positions 173-525 of the human LAG-3 amino acid sequence in SEQ ID No: 86, FIG. 101) of human LAG-3 with a FLAG tag sequence (DYKDDDDK) (SEQ ID NO:87) added to the N terminus and the full length of human LAG-3 (both were constructed using pcDNA3.1; the nucleotide sequence encoding the amino acid sequence of human LAG-3 is described in SEQ ID No: 85, FIG. 100).

[3] = target: T3, immunoglobulin-like domains of human LAG-3; assay: as above; assay type: binding; conditions: FLAG-tagged 353-525, HEK293T cells, 10 μg/mL
Description: as §1, §2, §3

[4] = test system: immunoglobulin-like domains of human LAG-3; assay: as above; assay type: binding; conditions: concluded from binding to deletion constructs
Description: as §1, §2, §3

Molecule | binding to activated human T cells (PHA blasts) [1] | binding to cells expressing the construct containing domains 3 and 4 of human LAG-3 [2] | binding to cells expressing the construct containing only domain 4 of human LAG-3 [3] | immunoglobulin-like domain of LAG-3 bound (epitope) [4]
rLA212: anti-human LAG-3 rat monoclonal antibody; heavy chain variable region SEQ ID No: 6, light chain variable region SEQ ID No: 8 (antibody, listed as Rattus norvegicus, V domains shown) VH: EVQLVESGGGLVQPGRSLKLSCAASGFTYRSYVMAWVRQAPTRGLEWVASISTGGGNTYYRDSVKGRFTISRDNAKNTLYLQMDSLRSEDTATYYCAEDMSNSGYGLFDYWGQGVMVTVSS VL: NIVMTQSPKSMSISVGDRVTMNCKAGQNVDNNIAWYQKKPGQSPKLLIYYASNRNTGVPDRFTGGGYGTDFTLTINSVQAEDAAFYYCQRISNSPYTFGAGTELELKRA | bound to PHA blasts prepared as in vitro activated human T cells in a concentration-dependent manner | bound | none of them bound | domain 3
rLA869: anti-human LAG-3 rat monoclonal antibody; heavy chain variable region SEQ ID No: 14, light chain variable region SEQ ID No: 16 (antibody, listed as Rattus norvegicus, V domains shown) VH: EVQLVESGGGLVQPGRSLKLSCAASGFTYRTYVMAWVRQGPTQGLEWVASISTGGVSTYYRDSVKGRFTISRDNAKNTLYLQMDSLRSEDTATYYCAKDMLNGYNSQGLFDYWGQGVMVTVSS VL: NIVMTQSPKSMSISVGDRVTMNCRASQNVDNTIAWYQQKPGQSPKLLIYFASDRYTGVPDRFTGGGYGTDFTLTINSVQAEDAAFYYCQRIYNSPLTFGSGTKLEIRRA | bound to PHA blasts prepared as in vitro activated human T cells in a concentration-dependent manner |  |  | domain 3
rLA1264: anti-human LAG-3 rat monoclonal antibody; heavy chain variable region SEQ ID No: 18, light chain variable region SEQ ID No: 20 (antibody, listed as Rattus norvegicus, V domains shown) VH: EVQLVESGGGLVQPGRSLKLSCAASGFTFSSYYMAWVRQAPTKGLEWVAYISNGGYSTYYRDSVKGRFTISRENAKSTLYLQMDSLRSEDTATYYCTITDHSGYRFTYWGQGTLVTVSS VL: DIQMTQSPSLLSASVGDRVTLSCKASQSIYNSLAWYQQKLGEAPKLLIYDANSLQTGIPSRFSGSGSGTDFTLTISSLQPEDVATYFCQKYYSGNTFGAGTKLELKRA | bound to PHA blasts prepared as in vitro activated human T cells in a concentration-dependent manner |  |  | domain 3
rLA225: anti-human LAG-3 rat monoclonal antibody; heavy chain variable region SEQ ID No: 10, light chain variable region SEQ ID No: 12 (antibody, listed as Rattus norvegicus, V domains shown) VH: EVQLVESGGGLVQPGRSMKLSCVASGFTFSNYYMAWVRQAPTKGLEWVASISTGGGNTYYRDSVKGRFTISRDNAKSTLYLQMDSLRSEDTATYYCARPPYGYNYGWFTYWGQGTLVTVSS VL: DIQMTQSPASLSASLGETVTIECRASEDIHNGLVWYQQKPGKSPQLLIYNANSMHTGVPSRFSGSGSGTQYSLKINSLQSEDVASYFCQQYYNYPRTFGGGTKLELKRA | bound to PHA blasts prepared as in vitro activated human T cells in a concentration-dependent manner | bound | none of them bound | domain 3
rLA204: anti-human LAG-3 rat monoclonal antibody; heavy chain variable region SEQ ID No: 2, light chain variable region SEQ ID No: 4 (antibody, listed as Rattus norvegicus, V domains shown) VH: EVELVESGGGLVQPGRSMKLSCAASGFTFRTYGMAWVRQAPTKGLEWVASISTGGGSTYYRDSVKGRFTISRDNAKSTLYLQMDSLRSEDTATYYCTTDLINYPGIGGFAFWGQGTLVTVSS VL: NIVMTQSPKSMSISVGDRVTMNCKASQNVYNNIAWYQQKPGKSPKLLIYYASNRYTGVPDRFTGSGSGTDFTLTIHSVQAEDAAFYYCQRLYNSPPTFGGGTKLELKRA | bound to PHA blasts prepared as in vitro activated human T cells in a concentration-dependent manner | bound | none of them bound | domain 3
